Laboratory results taken from patent US20030073236A1, “p193 proteins and nucleic acids, and uses thereof” (priority 1999, published 2003).

Target: p193myc (p193 protein harboring a C-terminal myc epitope tag, from CMV-p193myc) (mouse) (UniProt Q8VE73)
Assay: cell-based or functional assay

SV40 Large T Antigen (T-Ag) (from UniProt P03070 1-708)
co-localization to the cytoplasm in co-transfected NIH-3T3 cells (immune cytologic analyses): 63%
